Target: T1, mouse 4-1BB–Fc protein (mouse, UniProt P20334 24-187)
T1 chain: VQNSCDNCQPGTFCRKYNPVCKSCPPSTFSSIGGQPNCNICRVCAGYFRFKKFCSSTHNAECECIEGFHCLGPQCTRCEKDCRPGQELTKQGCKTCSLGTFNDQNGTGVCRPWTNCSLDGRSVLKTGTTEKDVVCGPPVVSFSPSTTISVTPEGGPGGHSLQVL
Experiment: SPR

B1: mouse siglec-4–HIS protein (domain or fragment)
chain: GHWGAWMPSTISAFEGTCVSIPCRFDFPDELRPAVVHGVWYFNSPYPKNYPPVVFKSRTQVVHESFQGRSRLLGDLGLRNCTLLLSTLSPELGGKYYFRGDLGGYNQYTFSEHSVLDIVNTPNIVVPPEVVAGTEVEVSCMVPDNCPELRPELSWLGHEGLGEPTVLGRLREDEGTWVQVSLLHFVPTREANGHRLGCQAAFPNTTLQFEGYASLDVKYPPVIVEMNSSVEAIEGSHVSLLCGADSNPPPLLTWMRDGMVLREAVAKSLYLDLEEVTPGEDGVYACLAENAYGQDNRTVELSVMYAPWKPTVNGTVVAVEGETVSILCSTQSNPDPILTIFKEKQILATVIYESQLQLELPAVTPEDDGEYWCVAENQYGQRATAFNLSVEFAPIILLESHCAAARDTVQCLCVVKSNPEPSVAFELPSRNVTVNETEREFVYSERSGLLLTSILTIRGQAQAPPRVICTSRNLYGTQSLELPFQGAHRLMWAKIGP
  koff: 0.011 s⁻¹

Source: article PMC10866537 (2024)
